We go through four molecules from paper PMC2110899, “Exchanging Murine and Human Immunoglobulin Constant Chains Affects the Kinetics and Thermodynamics of Antigen Binding and Chimeric Antibody Autoreactivity” (PLoS ONE, 2007).

The target in assay [1] is GXM-binding murine monoclonal antibody 18B7 (mouse). In words: SPR; BIAcore 3000; antibody immobilised on a CM5 chip through primary amino groups; peptide P1 1.56 µM to 200 µM at 100 µl/min in 0.2 mM K2HPO4/KH2PO4 pH 6.5, 150 mM KCl, 0.01% Tween 20; 25°C; global fit to a two-state model, equilibrium constants calculated from the rate constants.
Assay [2] addresses Mouse-human chimeric antibody 18B7 (IgG1) (mouse | human). The description is as above.
Assay [3] addresses deglycosylated form of mAb 18B7 (mouse). The description is as above.
Assay [4] addresses T1, thyroglobulin (Bos taurus (assumed), UniProt P01267).
T1 construct: thyroglobulin (Sigma); source: bought: Sigma
In words: ELISA; polystyrene plates coated overnight at 4°C with antigen at 5 µg/ml in bicarbonate buffer pH 9.6; blocked with 1% BSA in TBS; Abs added at 40 µg/ml in 1% BSA/TBS and serially diluted, overnight at 4°C; alkaline-phosphatase conjugated anti-mouse or anti-human IgG. Conditions: both partners purified. For orientation: ELISA stands for enzyme-linked immunosorbent assay.

Ends that are not written are not given here.

T1 sequence (P01267 20-2769): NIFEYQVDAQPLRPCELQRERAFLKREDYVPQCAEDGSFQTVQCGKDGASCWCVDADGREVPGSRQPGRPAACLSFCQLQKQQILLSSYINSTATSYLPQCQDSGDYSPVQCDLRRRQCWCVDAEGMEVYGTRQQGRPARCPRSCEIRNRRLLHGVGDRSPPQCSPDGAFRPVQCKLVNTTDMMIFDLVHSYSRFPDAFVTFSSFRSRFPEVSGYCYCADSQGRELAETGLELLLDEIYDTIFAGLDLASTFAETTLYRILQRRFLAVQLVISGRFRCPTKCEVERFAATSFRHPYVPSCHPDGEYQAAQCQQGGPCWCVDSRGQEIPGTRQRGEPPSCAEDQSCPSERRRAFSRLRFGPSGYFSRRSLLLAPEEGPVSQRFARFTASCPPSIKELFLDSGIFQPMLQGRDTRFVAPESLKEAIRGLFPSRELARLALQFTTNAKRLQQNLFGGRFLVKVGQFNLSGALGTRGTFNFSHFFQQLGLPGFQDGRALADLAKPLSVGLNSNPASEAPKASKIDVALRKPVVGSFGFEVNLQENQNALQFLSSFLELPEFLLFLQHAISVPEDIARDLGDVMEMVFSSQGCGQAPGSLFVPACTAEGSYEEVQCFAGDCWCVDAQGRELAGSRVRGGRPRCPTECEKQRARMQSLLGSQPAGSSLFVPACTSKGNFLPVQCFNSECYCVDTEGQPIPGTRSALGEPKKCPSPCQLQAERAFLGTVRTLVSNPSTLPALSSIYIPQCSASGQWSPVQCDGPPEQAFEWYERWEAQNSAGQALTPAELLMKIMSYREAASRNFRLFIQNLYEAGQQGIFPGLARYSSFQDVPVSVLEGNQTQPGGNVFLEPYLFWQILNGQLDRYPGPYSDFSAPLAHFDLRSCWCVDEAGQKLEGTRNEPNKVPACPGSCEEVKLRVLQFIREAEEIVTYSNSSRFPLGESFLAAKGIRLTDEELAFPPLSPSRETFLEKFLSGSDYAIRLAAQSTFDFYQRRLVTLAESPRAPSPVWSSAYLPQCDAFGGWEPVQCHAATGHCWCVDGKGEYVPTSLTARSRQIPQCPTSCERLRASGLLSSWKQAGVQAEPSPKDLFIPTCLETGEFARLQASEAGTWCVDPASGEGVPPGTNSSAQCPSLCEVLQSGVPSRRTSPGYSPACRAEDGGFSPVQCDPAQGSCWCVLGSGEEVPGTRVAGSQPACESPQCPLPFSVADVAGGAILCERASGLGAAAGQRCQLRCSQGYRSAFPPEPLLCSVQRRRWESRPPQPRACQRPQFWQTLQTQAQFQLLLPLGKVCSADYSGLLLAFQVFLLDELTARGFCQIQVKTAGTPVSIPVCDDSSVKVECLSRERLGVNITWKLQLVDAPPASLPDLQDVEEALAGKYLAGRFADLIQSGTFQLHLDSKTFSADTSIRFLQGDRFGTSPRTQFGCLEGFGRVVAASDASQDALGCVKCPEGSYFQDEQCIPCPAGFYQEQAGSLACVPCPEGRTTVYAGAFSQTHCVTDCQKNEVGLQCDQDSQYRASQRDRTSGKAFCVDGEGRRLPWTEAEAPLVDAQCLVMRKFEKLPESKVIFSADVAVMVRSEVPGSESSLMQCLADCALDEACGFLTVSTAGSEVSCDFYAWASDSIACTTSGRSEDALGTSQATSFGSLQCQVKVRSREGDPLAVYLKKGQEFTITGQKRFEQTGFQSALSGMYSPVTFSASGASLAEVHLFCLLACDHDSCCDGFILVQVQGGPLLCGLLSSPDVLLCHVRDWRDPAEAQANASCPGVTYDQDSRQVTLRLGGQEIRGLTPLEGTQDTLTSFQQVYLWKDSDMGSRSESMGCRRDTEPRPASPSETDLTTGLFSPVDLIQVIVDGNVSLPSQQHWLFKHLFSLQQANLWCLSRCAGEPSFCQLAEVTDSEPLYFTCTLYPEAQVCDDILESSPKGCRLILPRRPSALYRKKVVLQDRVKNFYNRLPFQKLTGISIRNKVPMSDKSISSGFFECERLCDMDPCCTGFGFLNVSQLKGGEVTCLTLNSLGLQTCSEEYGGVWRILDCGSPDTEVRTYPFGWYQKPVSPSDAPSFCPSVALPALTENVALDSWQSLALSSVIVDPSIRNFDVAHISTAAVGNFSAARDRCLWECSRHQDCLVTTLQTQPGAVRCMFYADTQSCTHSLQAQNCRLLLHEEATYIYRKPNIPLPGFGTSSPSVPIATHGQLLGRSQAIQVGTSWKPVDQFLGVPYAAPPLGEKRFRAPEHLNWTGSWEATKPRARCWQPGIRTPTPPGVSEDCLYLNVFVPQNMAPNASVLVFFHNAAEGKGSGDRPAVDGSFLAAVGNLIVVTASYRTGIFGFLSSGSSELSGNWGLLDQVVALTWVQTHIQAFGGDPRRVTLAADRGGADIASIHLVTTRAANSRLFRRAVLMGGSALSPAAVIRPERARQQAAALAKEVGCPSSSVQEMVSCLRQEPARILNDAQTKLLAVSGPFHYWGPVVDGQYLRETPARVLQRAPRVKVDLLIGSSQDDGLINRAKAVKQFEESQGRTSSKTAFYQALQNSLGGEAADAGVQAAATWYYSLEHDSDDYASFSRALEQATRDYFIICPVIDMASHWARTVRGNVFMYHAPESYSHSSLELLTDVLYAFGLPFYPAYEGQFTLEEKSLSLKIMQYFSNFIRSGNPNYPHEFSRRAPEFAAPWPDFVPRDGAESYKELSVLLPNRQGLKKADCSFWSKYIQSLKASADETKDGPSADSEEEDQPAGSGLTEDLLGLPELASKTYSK

One may read the Kd as the free concentration of one partner at which half of the binding sites on the other are occupied at equilibrium, for simple one-to-one binding. Regarding SPNQHTPPWMLK (also: biotinylated, position not given here) [Peptide mimetic of GXM P1], the Kd in assay [1] was 2.33 mM; in assay [2], 0.541 mM; in assay [3] it was 1.07 mM.

B1: Mouse-human chimeric antibody 18B7 (IgG1) (antibody, V domains shown)
VH: DVKLVESGGGLLKLGGSLKLSCVASGFSFSSYFMSWVRQTPEKRLELVAMINNNGDKTYYPDTVRGRFTISRDNAKNTLYLQMSSLKSEDTAMYYCARRDGTFGNHFDYWGQGTTLTVSS
VL: DVVMTQAPLALPVSLGDQASISCRSSQSLAHSNGNTYLHWYLQKPGQSPKLLIYKVSNRFSGVPDRFSGSGSGTDFTLKISRVEAEDLGVYFCSQSTHVPWTFGGGTKLEIK
notes: as the VH of m1 (identical V regions); human IgG1 (γ1) heavy chain constant region; as the VL of m1 (identical V regions); light chain constant region; IgG1; also called chAb 18B7; ch18B7; source: generated by cloning and transfection as described [36], purified by protein L agarose beads
With B1, the binding result in assay [4] is “binds”.

B2: deglycosylated form of mAb 18B7 (antibody, V domains shown)
VH: DVKLVESGGGLLKLGGSLKLSCVASGFSFSSYFMSWVRQTPEKRLELVAMINNNGDKTYYPDTVRGRFTISRDNAKNTLYLQMSSLKSEDTAMYYCARRDGTFGNHFDYWGQGTTLTVSS
VL: DVVMTQAPLALPVSLGDQASISCRSSQSLAHSNGNTYLHWYLQKPGQSPKLLIYKVSNRFSGVPDRFSGSGSGTDFTLKISRVEAEDLGVYFCSQSTHVPWTFGGGTKLEIK
notes: as the VH of m1; murine IgG1 heavy chain constant region, as in m1; as the VL of m1; as the light chain constant region of m1; Same chains as m1 without the N-glycan; PNGase F is known to turn the glycosylated Asn into Asp; also called 18B7dg; mAb 18B7dg; source: mAb 18B7 from hybridoma culture supernatants (protein G), incubated with PNGaseF at 37°C for 24 h, dialyzed against PBS
For the molecule B2, the binding result in assay [4] is given as “binds”.

B3: GXM-binding murine monoclonal antibody 18B7 (antibody, V domains shown)
VH: DVKLVESGGGLLKLGGSLKLSCVASGFSFSSYFMSWVRQTPEKRLELVAMINNNGDKTYYPDTVRGRFTISRDNAKNTLYLQMSSLKSEDTAMYYCARRDGTFGNHFDYWGQGTTLTVSS
VL: DVVMTQAPLALPVSLGDQASISCRSSQSLAHSNGNTYLHWYLQKPGQSPKLLIYKVSNRFSGVPDRFSGSGSGTDFTLKISRVEAEDLGVYFCSQSTHVPWTFGGGTKLEIK
notes: VH of mAb 18B7; murine IgG1 heavy chain constant region; VL of mAb 18B7; murine light chain constant region; Murine IgG1; also called mAb 18B7; m18B7
As to B3, the binding result in assay [4] is listed as “binds”.
